Results reported in patent publication US20240270846A1 (published 2024).
Numbering of substitutions follows the chain as printed. Each block holds one binder with its values, some of them ahead of it.

Target: T1, CD3 epsilon homodimer protein (UniProt P07766 23-126)
T1 construct: also called CD3 (CD3 epsilon)
Assay: SPR Biacore T200, CD3 epsilon homodimer on chip, antibody as analyte;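 further: homodimer amine-coupled to a CM4 sensor chip, run at 25 °C in HBS-EP+ buffer, with kinetic parameters derived in Biacore T200 Evaluation Software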
Procedure: An appropriate amount of CD3 epsilon homodimer protein was immobilized onto Sensor chip CM4 (GE Healthcare Japan Corp.) by the amine coupling method. Then, the antibody having an appropriate concentration was injected thereto as an analyte and allowed to interact with the CD3 epsilon homodimer protein on the sensor chip. Then, the sensor chip was regenerated by the injection of 10 mmol/L glycine-HCl (pH 1.5). The assay was conducted at 25 degrees C., and HBS-EP+(GE Healthcare Japan Corp.) was used as a running buffer. […] Each parameter was calculated using Biacore T200 Evaluation Software (GE Healthcare Japan Corp.).
Specifically, when the amount of the antibody comprising CE115HA000 bound was defined as X and the amount of the H chain one-amino acid altered form bound was defined as Y, a value of Z (ratio of amounts bound)=Y/X was used.

T1 sequence (P07766 23-126): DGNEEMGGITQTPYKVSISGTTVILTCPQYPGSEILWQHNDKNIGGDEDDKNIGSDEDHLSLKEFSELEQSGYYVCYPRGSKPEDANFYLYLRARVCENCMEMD

B1: CE115HA000 H chain altered form N54Q (antibody, human IgG1, kappa, L234A L235A, N297A, name in Kabat numbering)
heavy: QVQLVESGGGVVQPGRSLRLSCAASGFTFSNAWMHWVRQAPGKGLEWVAQIKAKSNQYATYYAESVKGRFTISRDDSKNSLYLQMNSLKTEDTAVYYCRYVHYGAYYGVDAWGQGTTVTVSSASTKGPSVFPLAPSSKSTSGGTAALGCLVKDYFPEPVTVSWNSGALTSGVHTFPAVLQSSGLYSLSSVVTVPSSSLGTQTYICNVNHKPSNTKVDKKVEPKSCDKTHTCPPCPAPEAAGGPSVFLFPPKPKDTLMISRTPEVTCVVVDVSHEDPEVKFNWYVDGVEVHNAKTKPREEQYASTYRVVSVLTVLHQDWLNGKEYKCKVSNKALPAPIEKTISKAKGQPREPQVYTLPPSRCELTKNQVSLSCAVKGFYPSDIAVEWESNGQPENNYKTTPPVLDSDGSFFLVSKLTVDKSRWQQGNVFSCSVMHEALHNHYTQKSLSLSPDYKDDDDK
chain: EPKSSDKTHTCPPCPAPELLGGPSVFLFPPKPKDTLMISRTPEVTCVVVDVSHEDPEVKFNWYVDGVEVHNAKTKPREEQYNSTYRVVSVLTVLHQDWLNGKEYKCKVSNKALPAPIEKTISKAKGQPREPQVCTLPPSRDELTKNQVSLWCLVKGFYPSDIAVEWESNGQPENNYKTTPPVLDSDGSFFLYSKLTVDKSRWQQGNVFSCSVMHEALHNRYTQKSLSLSP
light: DIVMTQSPLSLPVTPGEPASISCRSSQSLVHSNRNTYLHWYQQKPGQAPRLLIYKVSNRFSGVPDRFSGSGSGTDFTLKISRVEAEDVGVYYCGQGTQVPYTFGQGTKLEIKRTVAAPSVFIFPPSDEQLKSGTASVVCLLNNFYPREAKVQWKVDNALQSGNSQESVTEQDSKDSTYSLSSTLTLSKADYEKHKVYACEVTHQGLSSPVTKSFNRGEC
notes: one-arm antibody
KD ratio (KD of CE115HA000 / KD of altered form): 0.8

B2: CE115HA000 H chain altered form Q50Y (antibody, human IgG1, kappa, L234A L235A, N297A, name in Kabat numbering)
heavy: B1 heavy with Q50Y, Q57N
chain: B1 chain
light: B1 light
notes: one-arm antibody
KD ratio (KD of CE115HA000 / KD of altered form): 49.1

B3: CE115HA000 H chain altered form Q50S (antibody, human IgG1, kappa, L234A L235A, N297A, name in Kabat numbering)
heavy: B1 heavy with Q50S, Q57N
chain: B1 chain
light: B1 light
notes: one-arm antibody
KD ratio (KD of CE115HA000 / KD of altered form): 47.4

B4: CE115HA000 H chain altered form Q50A (antibody, human IgG1, kappa, L234A L235A, N297A, name in Kabat numbering)
heavy: B1 heavy with Q50A, Q57N
chain: B1 chain
light: B1 light
notes: one-arm antibody
KD ratio (KD of CE115HA000 / KD of altered form): 22.6

B7: CE115HA000 H chain altered form R19T (antibody, human IgG1, kappa, L234A L235A, N297A, name in Kabat numbering)
heavy: B1 heavy with R19T, Q57N
chain: B1 chain
light: B1 light
notes: one-arm antibody
KD ratio (KD of CE115HA000 / KD of altered form): 0.81

B8: CE115HA000 H chain altered form N54S (antibody, human IgG1, kappa, L234A L235A, N297A, name in Kabat numbering)
heavy: B1 heavy with Q57S
chain: B1 chain
light: B1 light
notes: one-arm antibody
KD ratio (KD of CE115HA000 / KD of altered form): 0.57

B10: CE115HA000 H chain altered form R16Q (antibody, human IgG1, kappa, L234A L235A, N297A, name in Kabat numbering)
heavy: B1 heavy with R16Q, Q57N
chain: B1 chain
light: B1 light
notes: one-arm antibody
KD ratio (KD of CE115HA000 / KD of altered form): 0.87

B12: CE115HA000 H chain altered form R16E (antibody, human IgG1, kappa, L234A L235A, N297A, name in Kabat numbering)
heavy: B1 heavy with R16E, Q57N
chain: B1 chain
light: B1 light
notes: one-arm antibody
KD ratio (KD of CE115HA000 / KD of altered form): 0.74

B13: CE115HA000 H chain altered form Q50L (antibody, human IgG1, kappa, L234A L235A, N297A, name in Kabat numbering)
heavy: B1 heavy with Q50L, Q57N
chain: B1 chain
light: B1 light
notes: one-arm antibody
KD ratio (KD of CE115HA000 / KD of altered form): 1.41

B16: CE115HA000 H chain altered form Q50I (antibody, human IgG1, kappa, L234A L235A, N297A, name in Kabat numbering)
heavy: B1 heavy with Q50I, Q57N
chain: B1 chain
light: B1 light
notes: one-arm antibody
KD ratio (KD of CE115HA000 / KD of altered form): 1.21

B18: CE115HA000 H chain altered form N54Y (antibody, human IgG1, kappa, L234A L235A, N297A, name in Kabat numbering)
heavy: B1 heavy with Q57Y
chain: B1 chain
light: B1 light
notes: one-arm antibody
KD ratio (KD of CE115HA000 / KD of altered form): 1.03

B20: CE115HA000 H chain altered form Q50K (antibody, human IgG1, kappa, L234A L235A, N297A, name in Kabat numbering)
heavy: B1 heavy with Q50K, Q57N
chain: B1 chain
light: B1 light
notes: one-arm antibody
KD ratio (KD of CE115HA000 / KD of altered form): 0.71

B21: CE115HA000 H chain altered form Q50D (antibody, human IgG1, kappa, L234A L235A, N297A, name in Kabat numbering)
heavy: B1 heavy with Q50D, Q57N
chain: B1 chain
light: B1 light
notes: one-arm antibody
KD ratio (KD of CE115HA000 / KD of altered form): 75.4

B22: CE115HA000 H chain altered form Q50E (antibody, human IgG1, kappa, L234A L235A, N297A, name in Kabat numbering)
heavy: B1 heavy with Q50E, Q57N
chain: B1 chain
light: B1 light
notes: one-arm antibody
KD ratio (KD of CE115HA000 / KD of altered form): 16700

Results, then the binder that gave them:

KD ratio (KD of CE115HA000 / KD of altered form): 0.97
B5: CE115HA000 H chain altered form S52cQ (antibody, human IgG1, kappa, L234A L235A, N297A, name in Kabat numbering)
heavy: B1 heavy with S55Q, Q57N
chain: B1 chain
light: B1 light
notes: one-arm antibody

KD ratio (KD of CE115HA000 / KD of altered form): 0.81
B6: CE115HA000 H chain altered form S52cG (antibody, human IgG1, kappa, L234A L235A, N297A, name in Kabat numbering)
heavy: B1 heavy with S55G, Q57N
chain: B1 chain
light: B1 light
notes: one-arm antibody

KD ratio (KD of CE115HA000 / KD of altered form): 0.93
B9: CE115HA000 H chain altered form S52cF (antibody, human IgG1, kappa, L234A L235A, N297A, name in Kabat numbering)
heavy: B1 heavy with S55F, Q57N
chain: B1 chain
light: B1 light
notes: one-arm antibody

KD ratio (KD of CE115HA000 / KD of altered form): 0.93
B11: CE115HA000 H chain altered form S30G (antibody, human IgG1, kappa, L234A L235A, N297A, name in Kabat numbering)
heavy: B1 heavy with S30G, Q57N
chain: B1 chain
light: B1 light
notes: one-arm antibody

KD ratio (KD of CE115HA000 / KD of altered form): 0.79
B14: CE115HA000 H chain altered form S30D (antibody, human IgG1, kappa, L234A L235A, N297A, name in Kabat numbering)
heavy: B1 heavy with S30D, Q57N
chain: B1 chain
light: B1 light
notes: one-arm antibody

KD ratio (KD of CE115HA000 / KD of altered form): 0.88
B15: CE115HA000 H chain altered form S52cK (antibody, human IgG1, kappa, L234A L235A, N297A, name in Kabat numbering)
heavy: B1 heavy with S55K, Q57N
chain: B1 chain
light: B1 light
notes: one-arm antibody

KD ratio (KD of CE115HA000 / KD of altered form): 0.55
B17: CE115HA000 H chain altered form S52cD (antibody, human IgG1, kappa, L234A L235A, N297A, name in Kabat numbering)
heavy: B1 heavy with S55D, Q57N
chain: B1 chain
light: B1 light
notes: one-arm antibody

KD ratio (KD of CE115HA000 / KD of altered form): 0.67
B19: CE115HA000 H chain altered form S52cA (antibody, human IgG1, kappa, L234A L235A, N297A, name in Kabat numbering)
heavy: B1 heavy with S55A, Q57N
chain: B1 chain
light: B1 light
notes: one-arm antibody

KD ratio (KD of CE115HA000 / KD of altered form): 0.94
B23: CE115HA000 H chain altered form S52cL (antibody, human IgG1, kappa, L234A L235A, N297A, name in Kabat numbering)
heavy: B1 heavy with S55L, Q57N
chain: B1 chain
light: B1 light
notes: one-arm antibody
